This passage reports Km results from publication PMC5000626, “Urinary Dopamine as a Potential Index of the Transport Activity of Multidrug and Toxin Extrusion in the Kidney” (International Journal of Molecular Sciences, 2016).

Substrate in this series: NCCc1ccc(O)c(O)c1
The experiment in a line: cells, lysate or membranes. To be noted: other: [3H]dopamine uptake at 1 min, HEK293 cells expressing mMATE1, mean ± S.E., n=3; pH 7.4; 37.0 °C.

B1: mMATE1 (Mus musculus) (protein)
chain: MERTEESAPGPGGADAASERRGLRCLLLPGFLEELRALLVLAGPAFLAQLMMFLISFISSVFCGHLGKLELDAVTLAIAVINVTGISVGHGLSSACDTLISQTYGSQNLKHVGVILQRGTLILLLCCFPCWALFINTEQILLLFRQDPDVSRLTQTYVMIFIPALPAAFLYTLQVKYLLNQGIVLPQIMTGIAANLVNALANYVFLYHLHLGVMGSALANTISQFALAIFLFLYILWRRLHQATWGGWSWECLQDWASFLRLAIPSMLMLCIEWWAYEVGSFLSGILGMVELGAQSITYELAIIVYMIPSGFSVAANVRVGNALGAGNIDQAKKSSAISLIVTELFAVTFCVLLLGCKDLVGYIFTTDRDIVALVAQVIPIYAVSHLFEGLACTCGGILRGTGNQKVGAIVNAIGYYVIGLPIGIALMFAAKLGVIGLWSGIIICTTCQTTCFLAFIARLNWKRACQQAQVHANLKVNVALNSAVSHEPAHPVCPESHGEIMMTDLEKKDETQLDQPMNQQQALPIRPKDSNKLSGKQLALRRGLLLLGVVLVLVGGILVRVYIRIE
As usually defined, the Km is the concentration of substrate that gives half-maximal velocity. In the case of B1, the Km was 530 ± 80 µM.
